Results as given in PMC4231769, “The Werner syndrome protein limits the error-prone 8-oxo-dG lesion bypass activity of human DNA polymerase kappa” (Nucleic Acids Research, 2014).

T1: GST-tagged hpol κ^19-526 (human DNA polymerase kappa catalytic core) (human, UniProt Q9UBT6 19-526)
T1 construct: human DNA polymerase kappa (hpol κ), residues 19-526, catalytic core; The pull-downs used GST-tagged hpol κ^19-526; The polymerase assays (functional rows) name hpol κ^19-526 without a GST tag; also called GST-hpol κ; source: recombinant, purified
T1 sequence (looked up): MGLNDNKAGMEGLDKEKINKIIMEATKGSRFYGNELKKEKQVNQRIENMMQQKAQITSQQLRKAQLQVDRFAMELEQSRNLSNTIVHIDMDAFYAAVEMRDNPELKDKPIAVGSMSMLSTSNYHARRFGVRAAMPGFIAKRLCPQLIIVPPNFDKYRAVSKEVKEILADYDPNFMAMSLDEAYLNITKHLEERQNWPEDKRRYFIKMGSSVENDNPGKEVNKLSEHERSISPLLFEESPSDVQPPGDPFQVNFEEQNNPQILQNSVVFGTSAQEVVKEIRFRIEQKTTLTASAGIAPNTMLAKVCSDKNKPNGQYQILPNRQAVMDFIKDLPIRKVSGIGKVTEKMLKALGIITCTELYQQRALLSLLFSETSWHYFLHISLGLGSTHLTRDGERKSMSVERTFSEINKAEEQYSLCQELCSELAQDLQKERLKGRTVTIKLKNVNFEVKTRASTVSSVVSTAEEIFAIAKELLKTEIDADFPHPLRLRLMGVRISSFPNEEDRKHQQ


Target: T1, GST-tagged hpol κ^19-526 (human DNA …)
Test: pull-down; GST-hpol κ^19-526 on glutathione Sepharose beads (~1200 pmol), WRN construct 1 μM (~500 pmol) in 500 μl; 25 mM HEPES pH 7.5, 0.1 M NaCl, 10% glycerol, 5 mM β-ME; 16 h at 4°C; Coomassie-stained SDS-PAGE; specific binding = fraction bound to GST-hpol κ beads divided by fraction bound to GST-coated beads
Conditions: both partners purified

Binder	binding result	fold bound to GST-hpol κ beads over GST beads [fold]
WRN^1-333 exo domain (domain or fragment, UniProt Q14191 1-333, looked up, also called WRN exo) MSEKKLETTAQQRKCPEWMNVQNKRCAVEERKACVRKSVFEDDLPFLEFTGSIVYSYDASDCSFLSEDISMSLSDGDVVGFDMEWPPLYNRGKLGKVALIQLCVSESKCYLFHVSSMSVFPQGLKMLLENKAVKKAGVGIEGDQWKLLRDFDIKLKNFVELTDVANKKLKCTETWSLNSLVKHLLGKQLLKDKSIRCSNWSKFPLTEDQKLYAATDAYAGFIIYRNLEILDDTVQRFAINKEEEILLSDMNKQLTSISEEVMDLAKHLPHAFSKLENPRRVSILLKDISENLYSLRRMIIGSTNIETELRPSNNLNLLSFEDSTTGGVQQKQI	binds	
WRN^949-1092 RQC domain (domain or fragment, UniProt Q14191 949-1092, looked up, source: E. coli BL21 (DE3) Gold, purified (Ni Sepharose, Glutathione Sepharose, HRV 3C cleavage); not shown: 6xHis, N-terminal, cleaved; GST, N-terminal, cleaved) MDDSEDTSWDFGPQAFKLLSAVDILGEKFGIGLPILFLRGSNSQRLADQYRRHSLFGTGKDQTESWWKAFSRQLITEGFLVEVSRYNKFMKICALTKKGRNWLHKANTESQSLILQANEELCPKKLLLPSSKTVSSGTKEHCYN		~3
WRN^500-1092 ATPase/RQC construct (domain or fragment, source: E. coli BL21 (DE3) Gold, purified (Ni Sepharose, Glutathione Sepharose, HRV 3C cleavage); not shown: 6xHis, N-terminal, cleaved; GST, N-terminal, cleaved) not shown		~2
